According to patent US20080096811A1, “[…] VPAC2 RECEPTOR PEPTIDE AGONISTS” (Eli Lilly and Company, published 2008):
*1 amine or outer side, *2 acyl side, *3 side chain or, on linkers, in order; H or OH if unused. Where no end group is shown, it is not given here. Side-chain parts run from the residue outwards. The star is where a group is joined. γGlu = O=C(O)[C@H](CCC(=O)[*:2])N[*:1]; Palmitoyl = CCCCCCCCCCCCCCCC(=O)*; Hexanoyl = CCCCCC(=O)*

Molecular target: T1, human VPAC2 receptor (human) (UniProt P41587)
T1 sequence: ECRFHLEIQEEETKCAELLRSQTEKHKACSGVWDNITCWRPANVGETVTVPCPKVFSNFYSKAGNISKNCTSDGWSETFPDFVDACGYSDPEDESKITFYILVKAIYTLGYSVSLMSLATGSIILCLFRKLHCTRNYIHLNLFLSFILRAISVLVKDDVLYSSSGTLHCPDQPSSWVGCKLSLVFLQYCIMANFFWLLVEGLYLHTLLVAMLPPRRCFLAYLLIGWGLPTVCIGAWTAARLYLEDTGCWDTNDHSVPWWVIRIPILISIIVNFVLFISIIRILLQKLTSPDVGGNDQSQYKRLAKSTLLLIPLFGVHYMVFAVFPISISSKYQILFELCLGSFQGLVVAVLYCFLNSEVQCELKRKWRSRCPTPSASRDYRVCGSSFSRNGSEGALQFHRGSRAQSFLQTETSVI

Row | Binder | EC50 (nM) for cAMP generation, Alpha Screen | EC50 (nM) for cAMP generation, DiscoveRx
1 | Hexanoyl-HSDAVFTDNYTRLRKAAAAKKYLQSIKNSRTSPPP-NH2 (SMILES CCCCCC(=O)N[C@@H](Cc1c[nH]cn1)C(=O)N[C@@H](CO)C(=O)N[C@@H](CC(=O)O)C(=O)N[C@@H](C)C(=O)N[C@H](C(=O)N[C@@H](Cc1ccccc1)C(=O)N[C@H](C(=O)N[C@@H](CC(=O)O)C(=O)N[C@@H](CC(N)=O)C(=O)N[C@@H](Cc1ccc(O)cc1)C(=O)N[C@H](C(=O)N[C@@H](CCCNC(=N)N)C(=O)N[C@@H](CC(C)C)C(=O)N[C@@H](CCCNC(=N)N)C(=O)N[C@@H](CCCCN)C(=O)N[C@@H](C)C(=O)N[C@@H](C)C(=O)N[C@@H](C)C(=O)N[C@@H](C)C(=O)N[C@@H](CCCCN)C(=O)N[C@@H](CCCCN)C(=O)N[C@@H](Cc1ccc(O)cc1)C(=O)N[C@@H](CC(C)C)C(=O)N[C@@H](CCC(N)=O)C(=O)N[C@@H](CO)C(=O)N[C@H](C(=O)N[C@@H](CCCCN)C(=O)N[C@@H](CC(N)=O)C(=O)N[C@@H](CO)C(=O)N[C@@H](CCCNC(=N)N)C(=O)N[C@H](C(=O)N[C@@H](CO)C(=O)N1CCC[C@H]1C(=O)N1CCC[C@H]1C(=O)N1CCC[C@H]1C(N)=O)[C@@H](C)O)[C@@H](C)CC)[C@@H](C)O)[C@@H](C)O)C(C)C) [P178] | 0.12 nM | –
2 | HSDAVFTDNYTRLRKQVAAKKYLQSIKNSRTSPPPK(Trp)-NH2 (N-terminus assumed; SMILES CC[C@H](C)[C@H](NC(=O)[C@H](CO)NC(=O)[C@H](CCC(N)=O)NC(=O)[C@H](CC(C)C)NC(=O)[C@H](Cc1ccc(O)cc1)NC(=O)[C@H](CCCCN)NC(=O)[C@H](CCCCN)NC(=O)[C@H](C)NC(=O)[C@H](C)NC(=O)[C@@H](NC(=O)[C@H](CCC(N)=O)NC(=O)[C@H](CCCCN)NC(=O)[C@H](CCCNC(=N)N)NC(=O)[C@H](CC(C)C)NC(=O)[C@H](CCCNC(=N)N)NC(=O)[C@@H](NC(=O)[C@H](Cc1ccc(O)cc1)NC(=O)[C@H](CC(N)=O)NC(=O)[C@H](CC(=O)O)NC(=O)[C@@H](NC(=O)[C@H](Cc1ccccc1)NC(=O)[C@@H](NC(=O)[C@H](C)NC(=O)[C@H](CC(=O)O)NC(=O)[C@H](CO)NC(=O)[C@@H](N)Cc1c[nH]cn1)C(C)C)[C@@H](C)O)[C@@H](C)O)C(C)C)C(=O)N[C@@H](CCCCN)C(=O)N[C@@H](CC(N)=O)C(=O)N[C@@H](CO)C(=O)N[C@@H](CCCNC(=N)N)C(=O)N[C@H](C(=O)N[C@@H](CO)C(=O)N1CCC[C@H]1C(=O)N1CCC[C@H]1C(=O)N1CCC[C@H]1C(=O)N[C@@H](CCCCNC(=O)[C@@H](N)Cc1c[nH]c2ccccc12)C(N)=O)[C@@H](C)O) [P128] | 1.78 nM | –
3 | Hexanoyl-HSDAVFTDQYTRLRKQVAAKKYLQSIKQSRTSPPP-NH2 (SMILES CCCCCC(=O)N[C@@H](Cc1c[nH]cn1)C(=O)N[C@@H](CO)C(=O)N[C@@H](CC(=O)O)C(=O)N[C@@H](C)C(=O)N[C@H](C(=O)N[C@@H](Cc1ccccc1)C(=O)N[C@H](C(=O)N[C@@H](CC(=O)O)C(=O)N[C@@H](CCC(N)=O)C(=O)N[C@@H](Cc1ccc(O)cc1)C(=O)N[C@H](C(=O)N[C@@H](CCCNC(=N)N)C(=O)N[C@@H](CC(C)C)C(=O)N[C@@H](CCCNC(=N)N)C(=O)N[C@@H](CCCCN)C(=O)N[C@@H](CCC(N)=O)C(=O)N[C@H](C(=O)N[C@@H](C)C(=O)N[C@@H](C)C(=O)N[C@@H](CCCCN)C(=O)N[C@@H](CCCCN)C(=O)N[C@@H](Cc1ccc(O)cc1)C(=O)N[C@@H](CC(C)C)C(=O)N[C@@H](CCC(N)=O)C(=O)N[C@@H](CO)C(=O)N[C@H](C(=O)N[C@@H](CCCCN)C(=O)N[C@@H](CCC(N)=O)C(=O)N[C@@H](CO)C(=O)N[C@@H](CCCNC(=N)N)C(=O)N[C@H](C(=O)N[C@@H](CO)C(=O)N1CCC[C@H]1C(=O)N1CCC[C@H]1C(=O)N1CCC[C@H]1C(N)=O)[C@@H](C)O)[C@@H](C)CC)C(C)C)[C@@H](C)O)[C@@H](C)O)C(C)C) [P157] | 0.06 nM | –
4 | HSDAVFTDNYTRLRKQVAAKKYLQSIKNSRTSPPPK([γGlu-Palmitoyl])-NH2 (N-terminus assumed; SMILES CCCCCCCCCCCCCCCC(=O)N[C@@H](CCC(=O)NCCCC[C@H](NC(=O)[C@@H]1CCCN1C(=O)[C@@H]1CCCN1C(=O)[C@@H]1CCCN1C(=O)[C@H](CO)NC(=O)[C@@H](NC(=O)[C@H](CCCNC(=N)N)NC(=O)[C@H](CO)NC(=O)[C@H](CC(N)=O)NC(=O)[C@H](CCCCN)NC(=O)[C@@H](NC(=O)[C@H](CO)NC(=O)[C@H](CCC(N)=O)NC(=O)[C@H](CC(C)C)NC(=O)[C@H](Cc1ccc(O)cc1)NC(=O)[C@H](CCCCN)NC(=O)[C@H](CCCCN)NC(=O)[C@H](C)NC(=O)[C@H](C)NC(=O)[C@@H](NC(=O)[C@H](CCC(N)=O)NC(=O)[C@H](CCCCN)NC(=O)[C@H](CCCNC(=N)N)NC(=O)[C@H](CC(C)C)NC(=O)[C@H](CCCNC(=N)N)NC(=O)[C@@H](NC(=O)[C@H](Cc1ccc(O)cc1)NC(=O)[C@H](CC(N)=O)NC(=O)[C@H](CC(=O)O)NC(=O)[C@@H](NC(=O)[C@H](Cc1ccccc1)NC(=O)[C@@H](NC(=O)[C@H](C)NC(=O)[C@H](CC(=O)O)NC(=O)[C@H](CO)NC(=O)[C@@H](N)Cc1c[nH]cn1)C(C)C)[C@@H](C)O)[C@@H](C)O)C(C)C)[C@@H](C)CC)[C@@H](C)O)C(N)=O)C(=O)O) [P80] | 1.82 nM | 2.8 nM
5 | Hexanoyl-HSDAVFTDNYTRLLLKVAAKKYLQSIKNSRTSPPP-NH2 (SMILES CCCCCC(=O)N[C@@H](Cc1c[nH]cn1)C(=O)N[C@@H](CO)C(=O)N[C@@H](CC(=O)O)C(=O)N[C@@H](C)C(=O)N[C@H](C(=O)N[C@@H](Cc1ccccc1)C(=O)N[C@H](C(=O)N[C@@H](CC(=O)O)C(=O)N[C@@H](CC(N)=O)C(=O)N[C@@H](Cc1ccc(O)cc1)C(=O)N[C@H](C(=O)N[C@@H](CCCNC(=N)N)C(=O)N[C@@H](CC(C)C)C(=O)N[C@@H](CC(C)C)C(=O)N[C@@H](CC(C)C)C(=O)N[C@@H](CCCCN)C(=O)N[C@H](C(=O)N[C@@H](C)C(=O)N[C@@H](C)C(=O)N[C@@H](CCCCN)C(=O)N[C@@H](CCCCN)C(=O)N[C@@H](Cc1ccc(O)cc1)C(=O)N[C@@H](CC(C)C)C(=O)N[C@@H](CCC(N)=O)C(=O)N[C@@H](CO)C(=O)N[C@H](C(=O)N[C@@H](CCCCN)C(=O)N[C@@H](CC(N)=O)C(=O)N[C@@H](CO)C(=O)N[C@@H](CCCNC(=N)N)C(=O)N[C@H](C(=O)N[C@@H](CO)C(=O)N1CCC[C@H]1C(=O)N1CCC[C@H]1C(=O)N1CCC[C@H]1C(N)=O)[C@@H](C)O)[C@@H](C)CC)C(C)C)[C@@H](C)O)[C@@H](C)O)C(C)C) [P156] | 0.29 nM | –
